# Experiment: yeast display, Sf9 membrane polyspecificity reagent, FACS + sequencing; frameworks hold sequencing errors
# Outline: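 A synthetic nanobody library was expressed on Saccharomyces cerevisiae BJ5465 by galactose induction for 36–48 hours. The library was stained for 1 hour at 4 °C with 10% biotinylated, detergent-solubilized Sf9 membrane reagent and enriched with streptavidin microbeads before FACS. Low and high (top ~1%) gates were set on anti-HA fluorescence for expression and streptavidin fluorescence for reagent binding, and each polyreactivity label reflects the gate of origin.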
row,Sequence,polyreactivity (PSR sort gate)
1,QVQLVESGGGLVQAGGSLRLSCAASGRIFYLNAMGWYRQAPGKERELVAAISSRGSRTYYADSVKGRFTISRDNAKNTVYLQMNSLKPEDTAVYYCNVRQRKQPDTDDYWGQGTQVTVSS,high polyreactivity
2,QVQLVESGGGLVQAGGSLRLSCAASGRIFYLNAMGWYRVAPGKERELVAAITRSAASTHYADSVKGRFTISRDNAKNTVYLQMNSLKPEDTAVYYCAARFWYDYRHYDYWGQGTQVTVSS,low polyreactivity
3,QVQLVESGGGLVQAGGSLRLSCAASGRIFYLYAMGWYRQAPGKDRELVAAITWSGGSTTYADSVKGRFTISRDTAKNTVYLQMNSLKPEDTAVYYSNADGWIFPSFSPMDYWGQGTQVTVSS,low polyreactivity
4,QVQLVESGGGLVQAGGSLRLSCAASGRIFYLYAMGWYRQAPGTEREFVASITVSGSSTYYADSVKGRFTISRDNAKNTVYLQMNSLKPEDTAVYYCNTDAVRSYVWWGTSLYDYWGQGTQVTVSS,low polyreactivity
5,QVQLVESGGGLVQAGGSLRLSCAASGRIFYLYGMGWYRQAPGKERELVAAIDWSDGSTYYADSVKGRFTISRDNAKNTVYLQMNSLKPEDTAVYYCAADGWAAWLYDYWGQGTQVTVSS,low polyreactivity
6,QVQLVESGGGLVQAGGSLRLSCAASGRIFYLYTMGWYRQAPGKEREFSTYYADSVKGRFTISRDNAKNTVYLQMNCLKPEDTAVYYCAAADHPPVWYGYWGQGTQVTVSS,low polyreactivity
7,QVQLVESGGGLVQAGGSLRLSCAASGRIFYLYTMGWYRQAPGKERELVAAITRAGRTYYADSVKGRFTISRDNAKNTVYLQMNSLKPEDTAVYYCAAAFLSRVQGYDSWGQGTQVTVSS,high polyreactivity
8,QVQLVESGGGLVQAGGSLRLSCAASGRIFYNNVMGWYRQAPGKERELVAAISGNGGSTYYADSVKGRFTISRDNAKNTVYLQMNSLKPEDTAVYFCAADDLYTDYETWWRRGDYWGQGTQVTVSS,low polyreactivity
9,QVQLVESGGGLVQAGGSLRLSCAASGRIFYNYAMGWYRQAPGKERELVAAITGGASTYADSVKGRFTISRDNAKNTVYLQMNSLKPEDTAVYYCAVDYYTYSLASGRTRMDYWGQGTQVTVSS,high polyreactivity
10,QVQLVESGGGLVQAGGSLRLSCAASGRIFYNYVMGWYRQAPGKERELVAAISSSGGSTYYADSVKGRFTISRDNAKNTVYLQMNSLKPEDTAVYYCGTTRRVPGEYWGQGTQVTVSS,high polyreactivity
11,QVQLVESGGGLVQAGGSLRLSCAASGRIFYPNAMGWYRQARGKERELVAGISSGGGRTYYADSVKGRFTISRDNAKNTVYLQMNSLKPEDTAVYYCATVGRGYDERHNYWGQGTQVTVSS,high polyreactivity
12,QVQLVESGGGLVQAGGSLRLSCAASGRIFYPNVMGWYRQAPGKERELVAAITWSSGSTYYADSVKGRFTISRDNAKNTVYLQMNSLKPEDTAVYYCAAGLRWHRKFYYWGQGTQVTVSS,high polyreactivity
13,QVQLVESGGGLVQAGGSLRLSCAASGRIFYPYAMGWYREAPGKERELVAAITVRGGRTYYADSVKGRFTFSRDNAKNTVYLQMNSLKPEDTAVYYCAARRWGAYRHGYWGQGTQVTVSS,high polyreactivity
14,QVQLVESGGGLVQAGGSLRLSCAASGRIFYPYAMGWYRQAPGKERELVAAIDKGGGSTYYADSVKGRFTISRDNAKNTVYLQMNSLKPEVTAVYYCAAGWEYPYDYWGQGTQVTVSS,low polyreactivity
15,QVQLVESGGGLVQAGGSLRLSCAASGRIFYPYAMGWYRQAPGKERELVAAISRSGGSTYYADSVKGRFTISRDNAKNTVYLQMNSLKPEDTAVYYCAARRGFGPDGEMDYWGQGTQVTVSS,low polyreactivity
16,QVQLVESGGGLVQAGGSLRLSCAASGRIFYPYAMGWYRQAPGKERELVAAISRSGGSTYYADSVKGRFTISRDNAKNTVYLQMNSLKPEDTAVYYCAKVTSSGDAVLTQIPYGYDYWGQGTQVTVSS,low polyreactivity
17,QVQLVESGGGLVQAGGSLRLSCAASGRIFYPYAMGWYRQAPGKERELVAAISSSGGSTYYADSVKGRFTISRDNAKNTVYLQMNSLKPEDTAVYYCNKYSYTYQNPYDSWGQGTQVTVSS,high polyreactivity
18,QVQLVESGGGLVQAGGSLRLSCAASGRIFYPYAMGWYRQAPGKERELVAAITGRGGSTYYADSVKGRFTISRDNAKNTVYLQMNSLKPEDTAVYYCATVQSGRVRTYDYWGQGTQVTVSS,high polyreactivity
19,QVQLVESGGGLVQAGGSLRLSCAASGRIFYPYAMGWYRQAPGKERELVAAITWSGGSTYYADSVKGRFTISRDNAKNTVYLQMNSLKPEDTAVYYCAKDHSYGAYYYWGQGTQVTVSS,high polyreactivity
20,QVQLVESGGGLVQAGGSLRLSCAASGRIFYPYVMGWYRQAPGKERELVAAISDTTGSTYYADSVKGRFTISRDNAKNTVYLQMNSLKPEDTEVFYCAAGWFYATYWRFYYWGQGTQVTVSS,low polyreactivity
21,QVQLVESGGGLVQAGGSLRLSCAASGRIFYQNAMGWYRQAPGKARELVADSASGGSTYYADSVKGRFTISRDNAKNTVYLQMNSLKPEDPAVYYCATAVLYGDGWYYYWGQGTQVTVSS,low polyreactivity
22,QVQLVESGGGLVQAGGSLRLSCAASGRIFYQNPMGWYRPAPGKERELVADISSGGSTYYADSVKGRFTISRDNAKNTVYLQMNSLKPEDTAGYYCNTPSGPGTVGSYRRIWYGYWGQGSQVTVSS,low polyreactivity
23,QVQLVESGGGLVQAGGSLRLSCAASGRIFYQYAMGWYRPAPGKERELVAAIRWSGGSTYYADSVKGRFTISRDNAKNTVYLQMNSLKQEDTAVYYCNARYPYWGAYYDYDYWGQGTQVTVSS,low polyreactivity
24,QVQLVESGGGLVQAGGSLRLSCAASGRIFYRNAMGWYRKAPGKEREWVAAISSSAGSTFYADSVKGRFTISRDNSKNTVYLQMNSLKPEDTAVYYCAAGSGTFVTRYRYGYWGQGTQVTVSS,high polyreactivity
25,QVQLVESGGGLVQAGGSLRLSCAASGRIFYRNAMGWYRQAPGKERELVAAISRSGGTTYYADSVKGRFTISRDNAKNTVYLQMNSLKPEDTAVYYCAALVPYSYPGYYYWGQGTQVTVSS,high polyreactivity
26,QVQLVESGGGLVQAGGSLRLSCAASGRIFYRNAMGWYRQAPGKERELVAAISYSGGRTYYADSVKGRFTISRDNAKNTVYLQMNSLKPEDTAVYYCAARYAWGYVDPGDYWGQGTQVTVSS,high polyreactivity
27,QVQLVESGGGLVQAGGSLRLSCAASGRIFYRNAMGWYRQAPGKERELVAAITGSGGSTYYADSVKGRFTISRDNAKNTVYLQMNSLKPEDTAVYYCNKPYFLYRPLGTGMEYWGQGTHVTVSS,high polyreactivity
28,QVQLVESGGGLVQAGGSLRLSCAASGRIFYRNAMGWYRQAPVKERELVASITWRGGRTYYADSVKGRFTISRDNAKNTVYLQMNSLKQEDTAVYYCNAAPRTYNAWDFDYWGQGTQVTVSS,high polyreactivity
29,QVQLVESGGGLVQAGGSLRLSCAASGRIFYRYAMGWYRQAPGKERELVAAINDGGSTYYADSVKGRFTISRDNAKNTVYLQMNSLKPEDTAVYYCNVVNEHQSDFVVPFDYNHWGQGTQVSVSS,low polyreactivity
30,QVQLVESGGGLVQAGGSLRLSCAASGRIFYRYAMGWYRQAPGKERELVAAISGSVGSTYADSVKGRFTISRDNAKNTVYLQMNSLKPEDTAVYYCARETYRRYGAYDYWGQGTQVTVSS,low polyreactivity

# From the nanobody polyreactivity screen of Harvey et al. (2022)
